Values of other authors, collected in patent EP1140148B1, “SHELF-STABLE SOLUTION FORMULATION OF GLUCAGON-LIKE PEPTIDE-1” (ELI LILLY AND COMPANY, priority 1998, dated 2005).

Conditions: stored at 4° C; as early as; Mojsov 1992

Substance: GLP-1(7-37): Glucagon-like peptide-1 (7-37), insulinotropic peptide hormone
- by-products found after sample preparation: eleven
